# From paper PMC8849274 (Oncotarget, 2022)
# How the values were obtained:
# Type in all cases: in vivo
# [1] = Biodistribution in mice bearing CaSki xenografts; conditions: female, athymic nude, mouse, iv, total radioactivity; for tissue uptake at 1 h: 1 h p.i.; for tissue uptake at 24 h: 24 h p.i.
# From the text: (§1) Animals were supplied by Charles River Laboratories (Wilmington, MA, USA), and were handled in compliance with the Guidelines for Care and Use of Research Animals established by the Division of Comparative Medicine and the Animal Studies Committee of Washington University School of Medicine under protocol #20–0214. Female athymic nude mice were inoculated on the right flank with 10 × 10^6 CaSki or 5 × 10^6 BxPC-3 cells. Tumors were allowed to grow until they approached approximately 100 mm^3 in volume. Radiolabeled peptides were diluted in saline to a dose of 0.37 MBq (10 μCi) per 100 μl. […] For blocking experiments, non-PEGylated peptide (100 μg in 100 μL saline) was injected ten minutes before radiotracer. Blood, lung, liver, spleen, kidney, muscle, heart, bone, and tumor were harvested. The amount of radioactivity in each organ was determined by gamma counting, and the percent injected dose per gram of tissue (% ID/g) was calculated.
# [2] = Biodistribution in mice bearing BxPC-3 xenografts; conditions: female, athymic nude, mouse, iv, total radioactivity, BxPC-3 tumor-bearing mice; for tissue uptake at 1 h: 1 h p.i.; for tissue uptake at 24 h: 24 h p.i.
# From the text: as §1
# [3] = Small animal PET/CT imaging, BxPC-3 tumors; conditions: female, mouse, tumor (BxPC-3 xenograft), iv, total radioactivity, athymic nude mice bearing BxPC-3 tumors, 3.7 MBq i.v., without blocking, n = 3, read-out: SUVmax of tumors
# Protocol: BxPC-3 cells (5 × 10^6) were inoculated in the right shoulder of female athymic nude mice 3–4 weeks before PET imaging sessions. All the experiments involving animals followed the Guidelines for Care and Use of Research Animals established by the Division of Comparative Medicine and the Animal Studies Committee of Washington University School of Medicine under protocol #20–0214. […] Mice were imaged with CT followed by static PET scans at 1, 4, and 24 h after tracer administration on an Inveon small animal PET/CT scanner (Siemens Medical Solutions, Malvern, PA, USA). Static images were collected for 20 min and reconstructed with the maximum a posteriori (MAP) reconstruction algorithm using the Inveon Reseach Workstation image display software (Siemens). Regions of interest (ROI) were selected based on co-registered anatomical CT images, and the associated radioactivity was measured using the Inveon software. The maximum standard uptake value (SUV) was calculated as the highest regional radioactivity concentration (nCi/cc) × animal weight (g)/decay-corrected amount of injected dose (nCi).
smiles,measurement,setting,value
"CC(C)C[C@H](NC(=O)[C@H](CC(=O)O)NC(=O)CNC(=O)[C@H](CCCNC(=N)N)NC(=O)[C@H](CC(C)C)NC(=O)[C@H](CC(N)=O)NC(=O)[C@@H]1CCCN1C(=O)[C@@H](NC(=O)[C@H](C)NC(=O)[C@H](CC(N)=O)NC(=O)CCOCCOCCOCCOCCOCCOCCOCCOCCOCCOCCOCCOCCOCCOCCOCCOCCOCCOCCOCCOCCOCCOCCOCCOCCOCCOCCOCCOCCNC(=O)CN1CCN(CC(=O)O)Cc2cccc(n2)CN(CC(=O)O)CC1)C(C)C)C(=O)N[C@@H](CCC(N)=O)C(=O)N[C@H](C(=O)N[C@@H](CC(C)C)C(=O)N[C@@H](C)C(=O)N[C@@H](CCC(N)=O)C(=O)N[C@@H](CCCCN)C(=O)N[C@H](C(=O)N[C@@H](C)C(=O)N[C@@H](CCCNC(=N)N)C(=O)N[C@H](C(=O)NCCOCCOCCOCCOCCOCCOCCOCCOCCOCCOCCOCCOCCOCCOCCOCCOCCOCCOCCOCCOCCOCCOCCOCCOCCOCCOCCOCCOCCC(N)=O)[C@@H](C)O)C(C)C)C(C)C [[^64Cu]Cu-PCTA-(PEG28)2-A20FMDV2, metal not drawn]",tissue uptake at 1 h,"[1]; blood, CaSki tumor-bearing mice, 0.37 MBq i.v., gamma counting, mean, n = 4, read-out: Uptake in Blood",0.54 %ID/g
same,tissue uptake at 24 h,"[1]; blood, CaSki tumor-bearing mice, 0.37 MBq i.v., read-out: Radioactivity remaining in the blood",0.53 ± 0.1 %ID/g
same,tissue uptake at 1 h,"[1]; blood, CaSki tumor-bearing mice, non-PEGylated A20FMDV2 100 μg injected 10 min before radiotracer, read-out: Uptake in Blood, 1 h Block",0.76 %ID/g
same,tissue uptake at 1 h,"[1]; bone, CaSki tumor-bearing mice, 0.37 MBq i.v., gamma counting, mean, n = 4, read-out: Uptake in Bone",0.54 %ID/g
same,tissue uptake at 1 h,"[1]; bone, CaSki tumor-bearing mice, non-PEGylated A20FMDV2 100 μg injected 10 min before radiotracer, read-out: Uptake in Bone, 1 h Block",0.39 %ID/g
same,tissue uptake at 1 h,"[1]; heart, CaSki tumor-bearing mice, 0.37 MBq i.v., gamma counting, mean, n = 4, read-out: Uptake in Heart",2.46 %ID/g
same,tissue uptake at 1 h,"[1]; heart, CaSki tumor-bearing mice, non-PEGylated A20FMDV2 100 μg injected 10 min before radiotracer, read-out: Uptake in Heart, 1 h Block",0.55 %ID/g
same,tissue uptake at 1 h,"[1]; kidney, CaSki tumor-bearing mice, 0.37 MBq i.v., gamma counting, mean, n = 4, read-out: Uptake in Kidney",114 ± 38.3 %ID/g
same,tissue uptake at 24 h,"[1]; kidney, CaSki tumor-bearing mice, 0.37 MBq i.v., read-out: Uptake in Kidney",24.4 ± 6.54 %ID/g
same,tissue uptake at 1 h,"[1]; kidney, CaSki tumor-bearing mice, non-PEGylated A20FMDV2 100 μg injected 10 min before radiotracer, read-out: Uptake in Kidney, 1 h Block",43.6 %ID/g
same,tissue uptake at 1 h,"[1]; liver, CaSki tumor-bearing mice, 0.37 MBq i.v., gamma counting, mean, n = 4, read-out: Uptake in Liver",6.81 %ID/g
same,tissue uptake at 1 h,"[1]; liver, CaSki tumor-bearing mice, non-PEGylated A20FMDV2 100 μg injected 10 min before radiotracer, read-out: Uptake in Liver, 1 h Block",3.04 %ID/g
same,tissue uptake at 1 h,"[1]; lung, CaSki tumor-bearing mice, 0.37 MBq i.v., gamma counting, mean, n = 4, read-out: Uptake in Lung",3.76 %ID/g
same,tissue uptake at 1 h,"[1]; lung, CaSki tumor-bearing mice, non-PEGylated A20FMDV2 100 μg injected 10 min before radiotracer, read-out: Uptake in Lung, 1 h Block",1.43 %ID/g
same,tissue uptake at 1 h,"[1]; muscle, CaSki tumor-bearing mice, 0.37 MBq i.v., gamma counting, mean, n = 4, read-out: Uptake in Muscle",1.23 %ID/g
same,tissue uptake at 1 h,"[1]; muscle, CaSki tumor-bearing mice, non-PEGylated A20FMDV2 100 μg injected 10 min before radiotracer, read-out: Uptake in Muscle, 1 h Block",0.43 %ID/g
same,tissue uptake at 1 h,"[1]; spleen, CaSki tumor-bearing mice, 0.37 MBq i.v., gamma counting, mean, n = 4, read-out: Uptake in Spleen",0.63 %ID/g
same,tissue uptake at 1 h,"[1]; spleen, CaSki tumor-bearing mice, non-PEGylated A20FMDV2 100 μg injected 10 min before radiotracer, read-out: Uptake in Spleen, 1 h Block",0.54 %ID/g
same,tissue uptake at 1 h,"[1]; tumor (CaSki xenograft), 0.37 MBq i.v., gamma counting, mean, n = 4, read-out: Tumor Uptake",1.63 ± 0.53 %ID/g
same,tissue uptake at 1 h,"[1]; tumor (CaSki xenograft), non-PEGylated A20FMDV2 100 μg injected 10 min before radiotracer, read-out: Tumor uptake, 1 h Block",0.67 ± 0.26 %ID/g
same,tissue uptake at 1 h,"[2]; blood, 0.37 MBq i.v., gamma counting, mean, n = 4, read-out: Uptake in Blood",0.27 %ID/g
same,tissue uptake at 1 h,"[2]; blood, non-PEGylated A20FMDV2 100 μg injected 10 min before radiotracer, read-out: Uptake in Blood, 1 h Block",0.27 %ID/g
same,tissue uptake at 1 h,"[2]; bone, 0.37 MBq i.v., gamma counting, mean, n = 4, read-out: Uptake in Bone",0.38 %ID/g
same,tissue uptake at 1 h,"[2]; bone, non-PEGylated A20FMDV2 100 μg injected 10 min before radiotracer, read-out: Uptake in Bone, 1 h Block",0.66 %ID/g
same,tissue uptake at 1 h,"[2]; heart, 0.37 MBq i.v., gamma counting, mean, n = 4, read-out: Uptake in Heart",1.9 %ID/g
same,tissue uptake at 1 h,"[2]; heart, non-PEGylated A20FMDV2 100 μg injected 10 min before radiotracer, read-out: Uptake in Heart, 1 h Block",0.27 %ID/g
same,tissue uptake at 1 h,"[2]; 0.37 MBq i.v., gamma counting, mean, n = 4, read-out: Tumor Uptake",3.86 ± 0.58 %ID/g
same,tissue uptake at 1 h,"[2]; kidney, 0.37 MBq i.v., gamma counting, mean, n = 4, read-out: Uptake in Kidney",105 ± 13.6 %ID/g
same,tissue uptake at 24 h,"[2]; kidney, 0.37 MBq i.v., read-out: Uptake in Kidney",28.6 ± 8.45 %ID/g
same,tissue uptake at 1 h,"[2]; kidney, non-PEGylated A20FMDV2 100 μg injected 10 min before radiotracer, read-out: Uptake in Kidney, 1 h Block",80.6 %ID/g
same,tissue uptake at 1 h,"[2]; liver, 0.37 MBq i.v., gamma counting, mean, n = 4, read-out: Uptake in Liver",1.94 %ID/g
same,tissue uptake at 1 h,"[2]; liver, non-PEGylated A20FMDV2 100 μg injected 10 min before radiotracer, read-out: Uptake in Liver, 1 h Block",1.68 %ID/g
same,tissue uptake at 1 h,"[2]; lung, 0.37 MBq i.v., gamma counting, mean, n = 4, read-out: Uptake in Lung",2.58 %ID/g
same,tissue uptake at 1 h,"[2]; lung, non-PEGylated A20FMDV2 100 μg injected 10 min before radiotracer, read-out: Uptake in Lung, 1 h Block",1.25 %ID/g
same,tissue uptake at 1 h,"[2]; muscle, 0.37 MBq i.v., gamma counting, mean, n = 4, read-out: Uptake in Muscle",1.13 %ID/g
same,tissue uptake at 1 h,"[2]; muscle, non-PEGylated A20FMDV2 100 μg injected 10 min before radiotracer, read-out: Uptake in Muscle, 1 h Block",0.28 %ID/g
same,tissue uptake at 1 h,"[2]; spleen, 0.37 MBq i.v., gamma counting, mean, n = 4, read-out: Uptake in Spleen",0.28 %ID/g
same,tissue uptake at 1 h,"[2]; spleen, non-PEGylated A20FMDV2 100 μg injected 10 min before radiotracer, read-out: Uptake in Spleen, 1 h Block",0.24 %ID/g
same,tissue uptake at 4 h,"[2]; tumor (BxPC-3 xenograft), 0.37 MBq i.v., 4 h p.i.",3.09 ± 0.77 %ID/g
same,tissue uptake at 24 h,"[2]; tumor (BxPC-3 xenograft), 0.37 MBq i.v., read-out: Tumor Uptake",2.45 ± 0.57 %ID/g
same,tissue uptake at 1 h,"[2]; tumor (BxPC-3 xenograft), non-PEGylated A20FMDV2 100 μg injected 10 min before radiotracer, read-out: Tumor uptake, 1 h Block",0.75 ± 0.09 %ID/g
same,SUV at 1 h,[3]; PET at 1 h,0.46 ± 0.04 SUV
same,SUV at 4 h,[3]; PET at 4 h,0.54 ± 0.05 SUV
same,SUV at 24 h,[3]; PET at 24 h,0.74 ± 0.21 SUV
